Experimental data taken from patent US20110301335A1 (published 2011).
Changes are numbered by the printed parent chain. Read-outs that look alike come from different tables or passages of the source. Blank lines part the entries; values can stand above or below the binder they belong to.

Assays:
Experiment in all cases: cell-based or functional assay
[1] = molecular target: T1, human TNFR1 on MRC-5 cells (human, UniProt P19438 30-455)
T1 sequence (looked up): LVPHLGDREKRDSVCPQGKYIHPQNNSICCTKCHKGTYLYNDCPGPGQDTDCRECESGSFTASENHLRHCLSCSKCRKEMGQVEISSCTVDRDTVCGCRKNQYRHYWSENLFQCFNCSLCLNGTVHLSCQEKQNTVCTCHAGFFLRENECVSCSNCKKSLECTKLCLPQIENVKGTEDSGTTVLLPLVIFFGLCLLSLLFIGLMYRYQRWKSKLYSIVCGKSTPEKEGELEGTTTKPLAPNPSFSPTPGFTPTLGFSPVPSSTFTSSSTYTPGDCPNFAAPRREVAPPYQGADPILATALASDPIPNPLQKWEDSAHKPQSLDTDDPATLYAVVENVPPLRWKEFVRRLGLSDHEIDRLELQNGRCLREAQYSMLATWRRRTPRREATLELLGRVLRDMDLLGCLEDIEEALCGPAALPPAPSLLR

[2] = molecular target: mouse TNFR1 on L929 cells (mouse) (UniProt P25118)
Sequence of mouse TNFR1 on L929 cells (mouse) (P25118 30-454): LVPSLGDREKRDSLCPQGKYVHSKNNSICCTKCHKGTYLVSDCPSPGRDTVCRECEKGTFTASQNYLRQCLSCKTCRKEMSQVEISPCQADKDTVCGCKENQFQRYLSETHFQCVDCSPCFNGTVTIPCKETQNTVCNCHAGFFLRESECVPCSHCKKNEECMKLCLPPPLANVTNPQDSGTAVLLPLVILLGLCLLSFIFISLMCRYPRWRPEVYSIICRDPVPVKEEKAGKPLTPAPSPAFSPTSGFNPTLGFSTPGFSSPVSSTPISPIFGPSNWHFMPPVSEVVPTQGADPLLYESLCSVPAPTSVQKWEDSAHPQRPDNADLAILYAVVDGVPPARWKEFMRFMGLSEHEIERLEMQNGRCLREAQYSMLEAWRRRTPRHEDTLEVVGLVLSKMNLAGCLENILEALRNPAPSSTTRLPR

[3] = molecular target: T1, human TNFR1 on MRC-5 cells; remark: listed apart in the source
[4] = molecular target: T1, human TNFR1 on MRC-5 cells; remark: listed apart in the source

ND50 (MRC5) [1]: 16 nM
B1: DMS0168 (bispecific antibody)
chain: EVQLLESGGGLVQPGGSLRLSCAASGFTFVKYSMGWVRQAPGKGLEWVSQISNTADRTYYAHSVKGRFTISRDNSKNTLYLQMNSLRAEDTAVYYCAIYTGRWVPFEYWGQGTLVTVSSASTSGPSDIQMTQSPSSLSASVGDRVTITCRASQSIIKHLKWYQQKPGKAPKLLIYGASRLQSGVPSRFSGSGSGTDFTLTISSLQPEDFATYYCQQGARWPQTFGQGTKVEIKRAAAEQKLISEEDLN

MRC5 (ND50 in nM) [1]: 1.6 nM
B2: DMS0111 (bispecific antibody)
chain: EVQLLESGGGLVQPGGSLRLSCAASGFTFVKYSMGWVRQAPGKGLEWVSQISNTADRTYYAHSVKGRFTISRDNSKNTLYLQMNSLRAEDTAVYYCAIYTGRWVPFEYWGQGTLVTVSSASTDIQMTQSPSSLSASVGDRVTITCRASRPIGTTLSWYQQKPGKAPKLLILWNSRLQSGVPSRFSGSGSGTDFTLTISSLQPEDFATYYCAQAGTHPTTFGQGTKVEIKR

MRC5 ND50 [1]: 0.96 nM
L929 ND50 [2]: 6.52 nM
B3: DMS0134 (bispecific antibody)
chain: B2 chain with V30F, N53D

MRC5 ND50 [1]: 1.04 nM
L929 ND50 [2]: 6.8 nM
B4: DMS0132 (bispecific antibody)
chain: B2 chain with N53D

MRC5 ND50 [1]: 1.17 nM
L929 ND50 [2]: 5.9 nM
B5: DMS0135 (bispecific antibody)
chain: B2 chain with V30F, N53D, A61S

MRC5 (ND50 in nM) [1]: 1.3 nM
B6: DMS0112 (bispecific antibody)
chain: B2 chain with T154M, W172F, N173G

MRC5 ND50 [1]: 0.99 nM
L929 ND50 [2]: 4.2 nM
B7: DMS0133 (bispecific antibody)
chain: B2 chain with V30F, N53D, V104A

MRC5 (ND50 in nM) [1]: 1.8 nM
B8: DMS0121 (bispecific antibody)
chain: EVQLLESGGGLVQPGGSLRLSCAASGFTFVKYSMGWVRQAPGKGLEWVSQISNTADRTYYAHSVKGRFTISRDNSKNTLYLQMNSLRAEDTAVYYCAIYTGRWVPFEYWGQGTLVTVSSASGGGGSGGGGSGGGGSDIQMTQSPSSLSASVGDRVTITCRASRPIGTTLSWYQQKPGKAPKLLILWNSRLQSGVPSRFSGSGSGTDFTLTISSLQPEDFATYYCAQAGTHPTTFGQGTKVEIKR

MRC5 (ND50 in nM) [1]: 1.4 nM
B9: DMS0118 (bispecific antibody)
chain: EVQLLESGGGLVQPGGSLRLSCAASGFTFVKYSMGWVRQAPGKGLEWVSQISNTADRTYYAHSVKGRFTISRDNSKNTLYLQMNSLRAEDTAVYYCAIYTGRWVPFEYWGQGTLVTVSSASTSGPSDIQMTQSPSSLSASVGDRVTITCRASQWIGSQLSWYQQKPGKAPKLLIMWRSSLQSGVPSRFSGSGSGTDFTLTISSLQPEDFATYYCAQGLMKPMTFGQGTKVEIKR

ND50 (MRC5) [1]: 19 nM
B10: DMS0184 (bispecific antibody)
chain: EVQLLESGGGLVQPGGSLRLSCAASGFTFVKYSMGWVRQAPGKGPEWVSQISNTGDRTYYADSVKGRFTISRDNSKNTLYLQMNSLRAEDTAVYYCAIYTGRWEPFDYWGQGTLVTVSSASTSGPSDIQMTQSPSSLSASVGDRVTITCRASRPIGTTLSWYQQKPGKAPKLLIWFGSRLQSGVPSRFSGSGSGTDFTLTISSLQPEDFATYYCAQAGTHPTTFGQGTKVEIKR

MRC5 (ND50 in nM) [1]: 1.7 nM
B11: DMS0116 (bispecific antibody)
chain: B10 chain with P45L, G55A, D62H, E104V, D107E, T158M, W175L

MRC5 (ND50 in nM) [1]: 1.7 nM
B12: DMS0115 (bispecific antibody)
chain: B10 chain with P45L, G55A, D62H, E104V, D107E, W175L, F176W, G177N

MRC-5 EC50, fold of the EC50 of DOM1h-574-16 [3]: ~200 fold
B13: DOM1h-574 (other)
VH: EVQLLESGGGLVQPGGSLRLSCAASGFTFVKYSMGWVRQAPGKGLEWVSQISNTGGHTYYADSVKGRFTISRDNSKNTLYLQMNSLRAEDTAVYYCAKYTGRWEPFDYWGQGTLVTVSS

MRC5 (ND50 in nM) [4]: 3.7 nM
B14: DMS0114 (bispecific antibody, V domains shown)
VH: B13 VH with G55A, G56D, H57R, D62H, K98I, E104R, D107E

MRC-5 EC50 [3]: 140 nM
B15: DOM1h-574-19 (other)
VH: B13 VH with V30G, G44D, G56D, K98I

MRC5 (ND50 in nM) [4]: 1.5 nM
B16: DMS0122 (bispecific antibody, V domains shown)
VH: B13 VH with N53D, G56D, H57R, T58R, A61D, K98I, E104A, D107E

MRC5 (ND50 in nM) [4]: 25.9 nM
B17: DMS0117 (bispecific antibody, V domains shown)
VH: B13 VH with N53D, G56D, H57R, T58R, A61D, K98I, E104K, D107E

MRC-5 EC50 [3]: 300 nM
B18: DOM1h-574-15 (other)
VH: B13 VH with G56D, K98I

MRC-5 EC50 [3]: 10 nM
B19: DOM1h-574-8 (other)
VH: B13 VH with L45P, K98I

MRC-5 EC50 [3]: 130 nM
B20: DOM1h-574-12 (other)
VH: B13 VH with G56D

MRC-5 EC50 [3]: 800 nM
B21: DOM1h-574-11 (other)
VH: B13 VH with Y108H

MRC-5 EC50 [3]: 20 nM
B22: DOM1h-574-17 (other)
VH: B13 VH with L45P, G56D, K98I

MRC-5 EC50 [3]: 8 nM
B23: DOM1h-574-16 (other)
VH: B13 VH with L45P, G56D, H57R, K98I

MRC-5 EC50 [3]: 17 nM
B24: DOM1h-574-18 (other)
VH: B13 VH with V30G, G44D, G56D, H57R, K98I

MRC-5 EC50 [3]: 300 nM
B25: DOM1h-574-13 (other)
VH: B13 VH with G56D, H57R

ND50 (MRC5) [1]: 17 nM
B26: DMS0188 (bispecific antibody)
chain: EVQLLESGGGLVQPGGSLRLSCAASGFTFVKYSMGWVRQAPGKGPEWVSQISNTGDRTYYADSVKGRFTISRDNSKNTLYLQMNSLRAEDTAVYYCAIYTGRWEPFDYWGQGTLVTVSSASTSGPSDIQMTQSPSSLSASVGDRVTITCRASRPIGTMLSWYQQKPGKAPKLLILFGSRLQSGVPSRFSGSGSGTDFTLTISSLQPEDFATYYCAQAGTHPTTFGQGTKVEIKRAAAEQKLISEEDLN

ND50 (MRC5) [1]: 2.7 nM
B27: DMS0169 (bispecific antibody)
chain: B26 chain with P45L, G55A, D62H, E104V, D107E

ND50 (MRC5) [1]: 12 nM
B28: DMS0163 (bispecific antibody)
chain: B26 chain with F176A, G177F

MRC5 (ND50 in nM) [1]: 1.9 nM
B29: DMS0124 (bispecific antibody)
chain: EVQLLESGGGLVQPGGSLRLSCAASGFTFVKYSMGWVRQAPGKGLEWVSQISNTADRTYYAHSVKGRFTISRDNSKNTLYLQMNSLRAEDTAVYYCAIYTGRWVPFEYWGQGTLVTVSSASGGGGSGGGGSGGGGSDIQMTQSPSSLSASVGDRVTITCRASQWIGSQLSWYQQKPGKAPKLLIMWRSSLQSGVPSRFSGSGSGTDFTLTISSLQPEDFATYYCAQGLMKPMTFGQGTKVEIKR

ND50 (MRC5) [1]: 6 nM
B30: DMS0182 (bispecific antibody)
chain: EVQLLESGGGLVQPGGSLRLSCAASGFTFVKYSMGWVRQAPGKGPEWVSQISNTGDRTYYADSVKGRFTISRDNSKNTLYLQMNSLRAEDTAVYYCAIYTGRWEPFDYWGQGTLVTVSSASTDIQMTQSPSSLSASVGDRVTITCRASRPIGTTLSWYQQKPGKAPKLLIWFGSRLQSGVPSRFSGSGSGTDFTLTISSLQPEDFATYYCAQAGTHPTTFGQGTKVEIKRAAAEQKLISEEDLN

ND50 (MRC5) [1]: 20 nM
B31: DMS0186 (bispecific antibody)
chain: B30 chain with T154M, W171L
